In one assay the test system is COS7 cells. Nature of the assay: Subcellular fractionation of GFP-ERK2 constructs. The assay is classed as cell-based. The following applies: 48 hr after transfection, serum-starved. Here is the method:
FIG. 6 is an autoradiograph illustrating the subcellular fractionation of WT-GFP-ERK2 (WT), APA-GFP-ERK2 (APA), or EPE-GFP-ERK2 (EPE). COS7 cells were grown in 10 cm plates and transfected with the above ERK2 constructs. Twenty-four hr after transfection the cells were serum-starved for 16 hr and subjected to cellular fractionation as described under materials and Methods. Western blot analysis of aliquots of the fractions were stained with anti GFP Ab to detect the ERK2 and its mutant, and with anti tubulin and anti c-Jun Abs as markers for the cytoplasmic and nuclear fractions respectively.
Cellular Fractionation: Transfected COS7 cells were starved (0.1% FBS) for 16 h, after which they were washed with ice-cold PBS, suspended in ice-cold buffer H, and centrifuged (12,000×g, 5 min). Then, the nuclear and cytosolic fractions were isolated as described [H. Rubinfeld, T. Hanoch, R. Seger, J. Biol. Chem. 274, 30349 (1999)]. Briefly, the pellets were suspended in 0.1% NP-40 followed by centrifugation (12,000×g, 5 min). The supernatant, containing the cytosolic fraction, was boiled in sample buffer. The pellet was suspended in extraction buffer (420 mM Nacl, 50 mM β-glycerophosphate, 0.5 mM Na3VO4, 1.5 mM MgCl2, 0.2 mM EDTA, 1 mM DTT, 25% glycerol), incubate on ice for 10 min, sonicated (50 W, 2×7 sec), and centrifuged (12,000×g, 5 min). […]

In the next assay the test system is CHO cells. In words: Fluorescence microscopy of ERK2 constructs (subcellular localization). The following applies: overexpressed in CHO (and COS7) cells, serum-starved, fluorescent microscope. Format: cell-based. On the procedure: FIGS. 1A-1R are photomicrographs illustrating the role of SPS in the non-regulated accumulation of ERK2 in the nucleus. CHO (FIGS. 1A-F and 1M-R) or COS7 cells (FIGS. 1G-L) were grown on cover slips and transfected with WT-ERK2, or the mutants 244-6A and Δ244-6. Twenty-four hr following transfection, the cells were serum-starved (16 hr), fixed, stained with DAPI and visualized using a fluorescent microscope.
FIGS. 2A-2X are photomicrographs illustrating the role of SPS in the stimulated nuclear translocation of ERK2. CHO cells were grown on cover slips and co-transfected with HA-MEK1 together with either WT-ERK2, 244-6A, or Δ244-6. Twenty-four hr after transfection, the cells were serum starved for 16 hours, treated with TPA (250 nM, 15 min), except in WT-10 where the cells were treated with 10 nM TPA for 15 min. After treatments the cells were fixed and stained with either anti-HA Ab or DAPI.
FIGS. 5A-5F are photomicrographs illustrating that mutating the Ser residues in the SPS to Glu induces the nuclear accumulation of ERK2. CHO cells were grown on cover slips and transfected with WT-GFP-ERK2 (WT), APA-GFP-ERK2 (APA), or EPE-GFP-ERK2 (EPE). Twenty-four hr after transfection, the cells were serum-starved, fixed, stained with DAPI and visualized by a fluorescent microscope.
FIGS. 7A-7H are photomicrographs illustrating that EPE-ERKs translocates to the nucleus faster than WT-ERK. CHO cells were transfected with WT-GFP-ERK2 (WT) and EPE-GFP-ERK2 (EPE). Eight (FIGS. 7A-D) or twelve (FIGS. 7E-H) hours after transfection the cells were fixed, stained with DAPI and visualized by a fluorescent microscope.
Immunofluorescence Microscopy. Cells were fixed (30 min in 3% paraformaldehyde in PBS or 10 min with ice-cold methanol), followed by 5-min permeabilization with 0.2% Triton X-100 in PBS (23° C.). The fixed cells were sequentially incubated with the appropriate Abs (45 min) followed by rhodamine-conjugated secondary Abs (45 min) and DAPI. Slides were visualized using a fluorescence microscope (Nikon, Japan) at 400× magnifications. […]

The next assay has as its target T1, importin-7 (Homo sapiens, UniProt O95373).
T1 construct: endogenous in cells; host or cells: HeLa
Nature of the assay: Coimmunoprecipitation with importin-7. The assay is classed as binding. To be noted: HeLa cells, coimmunoprecipitation with anti GFP Ab, with or without stimulation. On the procedure: (§1) FIGS. 19A-19C are autoradiographs illustrating that phospho-SPS interacts with importin-7 and releases Nup153c binding without involvment of importin-β. […]. Interaction of ERK2 with Importin-7 is enhanced by EGF stimulation and EPE mutation. HeLa cells overexpressing WT-ERK (WT), ERK-APA (APA), ERK-EPE (EPE) or GFP were serum starved and treated with EGF (50 ng/ml, 10 min). The extracts of the treated cells were then subjected to coimmunoprecipitation using A/G beads pre-conjugated with anti GFP Ab and mild washes. The coimmunoprecipitated importin-7 (first panel) and importin-β (third panel), as well as their loading amounts (panels 2 and 4 respectively) were determined by WB using anti importin-7 (αImp7) and importin-β (αImpβ) Abs. The equal amount of immunoprecipitated ERKs was determined with anti GFP (αGFP; IP) Ab. FIG. 19B. Interaction of 2GFP-SPS and its mutants with importin-7. HeLa cells overexpressing 2GFP, 2GFP-SPS, 2GFP-APA and 2GFP-EPE constructs were subjected to coimmunoprecipitation as described in FIG. 19A (without EGF stimulation). FIG. 19C. Interaction of NUP153 with WTERK2 and its APA and EPE mutants. NUP153c is elevated in APA-ERK2, but reduced in EPE-ERK2. Immunoprecipitated and stringently washed WT-ERK2 (WT), APA-ERK2 (APA) or ERK2 from […] cells pre-treated with or without TPA (250 nM, 15 min) were incubated with 0.5 μg recombinant His-Nup153c. […]

The subject of the next assay is Nup153c. In words: Interaction with recombinant His-Nup153c. The following applies: immunoprecipitated ERK2 incubated with 0.5 μg recombinant His-Nup153c. The assay is classed as binding. Here is the method: as §1

T1 sequence (O95373 whole entry): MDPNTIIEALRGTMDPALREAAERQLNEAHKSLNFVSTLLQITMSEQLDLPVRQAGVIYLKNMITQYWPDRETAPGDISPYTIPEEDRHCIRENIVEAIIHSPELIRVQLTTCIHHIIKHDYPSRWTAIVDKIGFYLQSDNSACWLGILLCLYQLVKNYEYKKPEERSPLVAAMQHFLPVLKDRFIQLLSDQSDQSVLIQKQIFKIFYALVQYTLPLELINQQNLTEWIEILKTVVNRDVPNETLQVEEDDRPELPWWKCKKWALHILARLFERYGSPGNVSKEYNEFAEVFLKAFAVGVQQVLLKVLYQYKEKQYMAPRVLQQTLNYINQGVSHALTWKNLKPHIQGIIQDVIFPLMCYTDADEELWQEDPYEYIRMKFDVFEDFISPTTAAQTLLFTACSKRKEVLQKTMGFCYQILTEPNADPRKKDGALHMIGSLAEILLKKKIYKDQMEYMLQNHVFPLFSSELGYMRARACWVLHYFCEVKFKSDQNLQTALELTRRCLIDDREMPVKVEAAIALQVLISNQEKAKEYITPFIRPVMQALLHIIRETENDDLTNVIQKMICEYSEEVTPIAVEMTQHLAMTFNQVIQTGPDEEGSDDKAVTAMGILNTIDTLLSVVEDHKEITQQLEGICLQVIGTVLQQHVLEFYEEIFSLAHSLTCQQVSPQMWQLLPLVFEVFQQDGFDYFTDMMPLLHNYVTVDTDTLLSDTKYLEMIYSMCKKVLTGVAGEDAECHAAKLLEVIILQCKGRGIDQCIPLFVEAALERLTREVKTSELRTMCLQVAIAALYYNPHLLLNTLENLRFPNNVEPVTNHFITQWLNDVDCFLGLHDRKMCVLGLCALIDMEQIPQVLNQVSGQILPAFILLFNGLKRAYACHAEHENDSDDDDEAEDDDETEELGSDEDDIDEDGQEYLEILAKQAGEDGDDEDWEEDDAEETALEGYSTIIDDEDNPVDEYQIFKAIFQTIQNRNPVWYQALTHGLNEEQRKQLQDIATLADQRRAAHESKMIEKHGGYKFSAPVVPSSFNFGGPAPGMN

B1: APA-ERK2: GFP-ERK2 with the two Ser residues of the SPS sequence replaced by Ala (protein)
chain: MAAAAAAGPEMVRGQVFDVGPRYTNLSYIGEGAYGMVCSAYDNLNKVRVAIKKISPFEHQTYCQRTLREIKILLRFRHENIIGINDIIRAPTIEQMKDVYIVQDLMETDLYKLLKTQHLSNDHICYFLYQILRGLKYIHSANVLHRDLKPSNLLLNTTCDLKICDFGLARVADPDHDHTGFLTEYVATRWYRAPEIMLNSKGYTKSIDIWSVGCILAEMLSNRPIFPGKHYLDQLNHILGILGAPAQEDLNCIINLKARNYLLSLPHKNKVPWNRLFPNADSKALDLLDKMLTFNPHKRIEVEQALAHPYLEQYYDPSDEPIAEAPFKFDMELDDLPKEKLKELIFEETARFQPGYRS
modifications: left off: large carriers
Consider B1, for which the “localized in the nucleus” value with COS7 cells is about 5%. In addition, in the assay with CHO cells, the “subcellular localization in quiescent cells” value is on record as “cytoplasmic distribution”. Besides, the “interaction of ERK2 constructs with importin-7” value in the assay with importin-7 is “reduced the interaction”. The “interaction with Nup153” value in the assay with Nup153c is given as “increased”.
